The target of the test is GST-Gag (HIV-1 Gag fused to GST, from pGEX-6P-3/Gag) (HIV-1). Put plainly: SPR.

In the case of “FLAG-TSG101 (Tumor Susceptibility Gene 101) (from UniProt Q99816 1-390) (natural protein)”, the Kd (commonly the free concentration of one partner at which half of the binding sites on the other are occupied at equilibrium, for simple one-to-one binding) was found to be 55.2 nM; the koff (commonly the first-order rate constant of dissociation) was 0.0223 s⁻¹; the kon (commonly the rate constant with which the complex forms) is 924000 M⁻¹ s⁻¹.

(Values after publication PMC5029901.)
